Laboratory results taken from US20260103496A1, “NEUREGULIN AND USE THEREOF” (ZENSUN (SHANGHAI) SCIENCE & TECHNOLOGY, CO., LTD., priority 2022, published 2026).
Several values for one entry are separate records, joined by “and”; a condition that tells them apart may be missing. Identical values can stand only once.

System: subjects with chronic systolic heart failure
Test: Phase III clinical trial of recombinant human neuregulin for injection on cardiac function (LVESVI/LVEDVI), with enriched-subgroup analyses
Format: in vivo
Conditions: for average improvement in LVEDVI from baseline, enriched population compared with overall (general) population / average improvement in LVESVI from baseline, enriched population compared with overall (general) population: Day 30 after the administration
Method: Example 1: A Multi-Center, Randomized, Double-Blind, Placebo-Controlled and Standard Treatment-Based Phase III Clinical Trial to Evaluate the Effect of Recombinant Human Neuregulin for Injection on Cardiac Function of Subjects with Chronic Systolic Heart Failure
In this example, a multi-center, randomized, double-blind, placebo-controlled study was conducted based on standard treatment to evaluate the effects of recombinant human neuregulin for injection on the cardiac function of male patients with NT-proBNP ≤1700 pg/ml and female patients with NT-proBNP ≤4000 pg/ml, and to confirm its efficacy and safety.
A multicenter, randomized, double-blind, placebo-controlled study was conducted based on standard treatment.
Experimental group: recombinant human neuregulin for injection+standard basic treatment drugs (β receptor blocker, ACEI/ARB/ARNI, aldosterone receptor antagonist, etc.).
• 2.1 Age is 18-75 years old, regardless of gender; • 2.2 heart failure has been definitely diagnosed for 3 months or more, and the condition is stable at present, with NYHA II-III grade and left ventricular ejection fraction (LVEF)≤40%; • 2.3 male Nt-proBNP ≤1700 pg/ml, female Nt-proBNP ≤4000 pg/ml; • 2.4 After receiving standard basic treatment drugs for heart failure for 3 months, the target dose or maximum tolerated dose has been reached for more than 1 month, or the dose has not been changed within 1 month; • 2.5 Understand and sign the informed consent form.
Specification: Neucardin, 61 amino acids constitute EGF-like functional domain of Neuegulin-1β2 isomer, with molecular weight of 7054 Dal (1 μg=0.14 nmol); 250 μg/piece. • Dosage Form: Powder Injection • Administration Route: Intravenous Drip • Appearance: freeze-dried block or powder.
5. Data Collection: Evaluating the Effectiveness and Safety During the Screening Period, 30 Days and 90 Days after Administration.
This example was carried out in many clinical research centers in China at the same time. 154 cases were actually enrolled, 78 cases in the Neuregulin experimental group and 76 cases in the placebo group. A total of 147 cases (73 cases in the experimental group and 74 cases in the placebo group) finally achieved the main end points.
Through statistical analysis of the experimental results from Example 1, the inventors investigated, in this Example, the response rate of Neuregulin in improving LVESVI (by more than 13 mL/m^2) in an enriched population. The enriched population refers to patients with a baseline LVESVI ≥135 mL/m^2, accounting for approximately 41% of the total studied population.
Through statistical analysis of the results from Example 1, the inventors investigated, in this Example, the response rate of Neuregulin in improving both LVESVI and LVEDVI (both exceeding 20 mL/m^2) in individual patients of the enriched population.

[1] = 30 days after administration, P<0.05 vs placebo
[2] = baseline LVESVI ≥135 mL/m^2, listed as neuregulin
[3] = enriched population, baseline LVESVI ≥135 mL/m^2
[4] = individual subject, Day 30 vs baseline, FAS

B1: Neuregulin: 61 amino acids constitute EGF-like functional domain of Neuegulin-1β2 isomer, molecular weight 7054 Dal; SEQ ID NO: 1 (protein)
chain: SHLVKCAEKEKTFCVNGGECFMVKDLSNPSRYLCKCPNEFTGDRCQNYVMASFYKAEELYQ
patients with LVESVI reduction (30-day data, compared with baseline): 63%
ΔLVESVI (30 D): −5.62 ± 18.99 ml/m^2
ΔLVESVI (90 D, P=0.0128): −5.23 ± 17.12 ml/m^2
improvement rate: LVESVI decreased by ≥5 ml/m^2 compared with the baseline (30 days after administration): 45.2%
improvement rate: LVESVI decreased by ≥10 ml/m^2 compared with the baseline (30 days after administration): 34.2%
improvement rate: LVESVI decreased by ≥15 ml/m^2 compared with the baseline (30 days after administration): 23.3%
improvement rate: LVESVI decreased by ≥30 ml/m^2 compared with the baseline (30 days after administration): 8.2%
improvement rate: LVESVI decreased by ≥35 ml/m^2 compared with the baseline (30 days after administration): 5.5%
improvement rate: LVESVI decreased by ≥40 ml/m^2 compared with the baseline (30 days after administration): 2.7%
improvement rate: LVESVI decreased by ≥20 ml/m^2 compared with the baseline [1]: 17.8%
improvement rate: LVESVI decreased by ≥25 ml/m^2 compared with the baseline [1]: 15.1%
Increase in LVEDVI at Day 30 compared with the baseline was more than or equal to 5 ml/m^2, n/N(%) (Day 30, FAS): 19/73(26.0) %
Increase in LVEDVI at Day 30 compared with the baseline was more than or equal to 10 ml/m^2, n/N(%) (Day 30, FAS): 14/73(19.2) %
Increase in LVEDVI at Day 30 compared with the baseline was more than or equal to 15 ml/m^2, n/N(%) (Day 30, FAS): 9/73(12.3) %
Increase in LVEDVI at Day 30 compared with the baseline was more than or equal to 20 ml/m^2, n/N(%) (Day 30, FAS): 3/73(4.1) %
Increase in LVEDVI at Day 30 compared with the baseline was more than or equal to 25 ml/m^2, n/N(%) (Day 30, FAS): 3/73(4.1) %
Increase in LVEDVI at Day 30 compared with the baseline was more than or equal to 30 ml/m^2, n/N(%) (Day 30, FAS): 1/73(1.4) %
Increase in LVESVI at Day 30 compared with the baseline was more than or equal to 5 ml/m^2, n/N(%) (Day 30, FAS): 15/73(20.5) %
Increase in LVESVI at Day 30 compared with the baseline was more than or equal to 10 ml/m^2, n/N(%) (Day 30, FAS): 10/73(13.7) %
Increase in LVESVI at Day 30 compared with the baseline was more than or equal to 15 ml/m^2, n/N(%) (Day 30, FAS): 5/73(6.8) %
Increase in LVESVI at Day 30 compared with the baseline was more than or equal to 20 ml/m^2, n/N(%) (Day 30, FAS): 3/73(4.1) %
Increase in LVESVI at Day 30 compared with the baseline was more than or equal to 25 ml/m^2, n/N(%) (Day 30, FAS): 1/73(1.4) %
Increase in LVESVI at Day 30 compared with the baseline was more than or equal to 30 ml/m^2, n/N(%) (Day 30, FAS): 1/73(1.4) %
Reduction in LVEDVI at Day 30 compared with the baseline was more than or equal to 5 ml/m^2, n/N(%) (Day 30, FAS): 43.8% and 32/73(43.8) %
Reduction in LVEDVI at Day 30 compared with the baseline was more than or equal to 10 ml/m^2, n/N(%) (Day 30, FAS): 30.1% and 22/73(30.1) %
Reduction in LVEDVI at Day 30 compared with the baseline was more than or equal to 15 ml/m^2, n/N(%) (Day 30, FAS): 21.9% and 16/73(21.9) %
Reduction in LVEDVI at Day 30 compared with the baseline was more than or equal to 20 ml/m^2, n/N(%) (Day 30, FAS): 17.8% and 13/73(17.8) %
Reduction in LVEDVI at Day 30 compared with the baseline was more than or equal to 25 ml/m^2, n/N(%) (Day 30, FAS): 16.4% and 12/73(16.4) %
Reduction in LVEDVI at Day 30 compared with the baseline was more than or equal to 35 ml/m^2, n/N(%) (Day 30, FAS): 6.8% and 5/73(6.8) %
Reduction in LVEDVI at Day 30 compared with the baseline was more than or equal to 40 ml/m^2, n/N(%) (Day 30, FAS): 5.5% and 4/73(5.5) %
Reduction in LVEDVI at Day 30 compared with the baseline was more than or equal to 30 ml/m^2, n/N(%) (Day 30, FAS, P value of 0.046 vs placebo): 13.7% and 10/73(13.7) %
LVESVI improved compared with that before administration (Day 30 after administration, P=0.0137): 5.62 ml/m^2
average improvement in LVEDVI from baseline, enriched population compared with overall (general) population (baseline LVESVI ≥135 mL/m^2): greater average improvement in LVEDVI
average improvement in LVESVI from baseline, enriched population compared with overall (general) population (baseline LVESVI ≥135 mL/m^2): greater average improvement in LVESVI
average improvement in LVEDVI from baseline, enriched population compared with overall (general) population [2]: better average improvements in LVESVI or LVEDVI than the neuregulin treatment group in the general population
average improvement in LVESVI from baseline, enriched population compared with overall (general) population [2]: better average improvements in LVESVI or LVEDVI than the neuregulin treatment group in the general population
LVESVI and LVEDVI: Simultaneous increase by more than or equal to 5 ml/m^2, n/N(%) (Day 30 vs baseline, FAS): 13/73(17.8) %
LVESVI and LVEDVI: Simultaneous increase by more than or equal to 10 ml/m^2, n/N(%) (Day 30 vs baseline, FAS): 9/73(12.3) %
LVESVI and LVEDVI: Simultaneous increase by more than or equal to 15 ml/m^2, n/N(%) (Day 30 vs baseline, FAS): 3/73(4.1) %
LVESVI and LVEDVI: Simultaneous increase by more than or equal to 20 ml/m^2, n/N(%) (Day 30 vs baseline, FAS): 2/73(2.7) %
LVESVI and LVEDVI: Simultaneous increase by more than or equal to 25 ml/m^2, n/N(%) (Day 30 vs baseline, FAS): 1/73(1.4) %
LVESVI and LVEDVI: Simultaneous increase by more than or equal to 30 ml/m^2, n/N(%) (Day 30 vs baseline, FAS): 1/73(1.4) %
persistence of the LVESVI improvement effect (after 10-day administration, P=0.0128 at Day 90): could be maintained until Day 90 after the administration
response rate for a substantial improvement in LVESVI (a reduction of more than 13 mL/m^2) [3]: 50%
response rate for both LVESVI and LVEDVI decreased by more than 20 mL/m^2, compared with placebo group [3]: significantly higher than that in the placebo group
response rate for both LVESVI and LVEDVI reduced by ≥20 mL/m^2, enriched population compared with overall (general) population [3]: higher than that in the overall population
response rate for simultaneous improvements in both LVESVI and LVEDVI greater than 20 mL/m^2 (enriched population, baseline LVESVI ≥135 mL/m^2, individual subjects): 26.5%
response rate for both LVESVI and LVEDVI reduced by ≥20 mL/m^2, enriched population compared with overall (general) population (enriched population, baseline LVESVI ≥135 mL/m^2, listed as neuregulin): better response rate
LVESVI and LVEDVI: Simultaneous reduction by more than or equal to 5 ml/m^2, n/N(%) [4]: 37.0% and 27/73(37.0) %
LVESVI and LVEDVI: Simultaneous reduction by more than or equal to 10 ml/m^2, n/N(%) [4]: 23.3% and 17/73(23.3) %
LVESVI and LVEDVI: Simultaneous reduction by more than or equal to 15 ml/m^2, n/N(%) [4]: 19.2% and 14/73(19.2) %
LVESVI and LVEDVI: Simultaneous reduction by more than or equal to 25 ml/m^2, n/N(%) [4]: 12.3% and 9/73(12.3) %
LVESVI and LVEDVI: Simultaneous reduction by more than or equal to 30 ml/m^2, n/N(%) [4]: 6.8% and 5/73(6.8) %
LVESVI and LVEDVI: Simultaneous reduction by more than or equal to 35 ml/m^2, n/N(%) [4]: 4.1% and 3/73(4.1) %
LVESVI and LVEDVI: Simultaneous reduction by more than or equal to 40 ml/m^2, n/N(%) [4]: 1.4% and 1/73(1.4) %
LVESVI and LVEDVI: Simultaneous reduction by more than or equal to 20 ml/m^2, n/N(%) (individual subject, Day 30 vs baseline, FAS, p-value 0.0048 vs placebo): 16.4% and 12/73(16.4) %
